From PMC9213739, “Substrates and Loaded Iron Ions Relative Position Influence the Catalytic Characteristics of the Metalloenzymes Angelica archangelica Flavone Synthase I and Camellia sinensis Flavonol Synthase” (Frontiers in Pharmacology, 2022)

Test system: T1, COc1ccc([C@@H]2CC(=O)c3c(O)cc(O)cc3O2)cc1O
T1 construct: synthetic gene in pET-28a(+) (NcoI/XhoI), expressed in E. coli BL21(DE3); 365 residues
Experiment: UPLC-MS product formation, Lineweaver-Burk
Assay type: biochemical, Angelica archangelica
Conditions: diosmetin formation (main product), Tris-HCl pH 7.5, 23 °C, 1 h, 5 mM 2-mercaptoethanol, 1 mM NADPH, 'separated protein', purification not described
Description: UPLC-MS product formation, Lineweaver-Burk on […]

AnFNS I (Angelica archangelica), sequence (chain, as listed by the source): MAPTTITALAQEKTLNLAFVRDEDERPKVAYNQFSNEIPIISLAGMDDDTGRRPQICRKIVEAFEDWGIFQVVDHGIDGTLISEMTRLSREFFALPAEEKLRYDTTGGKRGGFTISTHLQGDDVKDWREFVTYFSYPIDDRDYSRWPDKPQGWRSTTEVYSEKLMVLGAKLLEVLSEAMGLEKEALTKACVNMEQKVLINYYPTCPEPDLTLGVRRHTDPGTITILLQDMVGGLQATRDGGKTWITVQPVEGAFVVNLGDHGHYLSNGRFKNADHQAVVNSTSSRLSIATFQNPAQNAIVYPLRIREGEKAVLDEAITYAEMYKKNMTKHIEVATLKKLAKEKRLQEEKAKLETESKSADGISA

For AnFNS I (Angelica archangelica), the Km was 59.04 µM, the Vmax was 0.0366 µmol/min/mg and the kcat was 0.0249 s⁻¹. The kcat/Km was 423 M⁻¹ s⁻¹.
